Source: US20150037339A1 (Regeneron, published 2015)

T1: Activin A (human, UniProt P08476 311-426)
T1 construct: Homodimer of two βA subunits; bought from R&D Systems (#338-AC); also called inhibin-βA dimer; human Activin A
T1 sequence: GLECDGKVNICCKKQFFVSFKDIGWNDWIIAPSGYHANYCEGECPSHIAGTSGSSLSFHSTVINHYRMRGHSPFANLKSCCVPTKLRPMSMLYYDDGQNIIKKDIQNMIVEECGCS

T2: Activin B (human, UniProt P09529 293-407)
T2 construct: Homodimer of two βB subunits; R&D Systems #659-AB
T2 chain: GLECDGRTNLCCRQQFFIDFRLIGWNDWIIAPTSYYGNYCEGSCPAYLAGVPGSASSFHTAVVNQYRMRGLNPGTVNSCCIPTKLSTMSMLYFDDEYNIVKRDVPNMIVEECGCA


What was measured:
Activin A [1] = biological target: T1, Activin A; experiment: Octet cross-competition; binder on anti-hFc tip; 50 nM hActivin A pre-bound with 1 uM H4H10440P2 (col 9); black box
Description: (§1) No. 8,309,082) and Control 3 (MAB3381, available from R&D Systems, Inc., Minneapolis, Minn.) were also included in the assays. All assays were performed at 25° C. with a microtiter plate shaking rate of 1000 rpm in Octet HBST buffer (0.01 M HEPES pH7.4, 0.15M NaCl, 3 mM EDTA, 0.05% v/v Surfactant P20, 0.1 mg/mL BSA) according to manufacturer's instructions (ForteBio Corp., Menlo Park, Calif.). […] Any remaining anti-hFc binding sites on the tips were blocked by incubating the tips in a 50 ug/mL solution of irrelevant antibody for 5 minutes.

Activin B [2] = biological target: T2, Activin B; experiment: SPR, captured mAb, 37C
Description: (§2) Antibody-antigen association was monitored for 240 seconds while dissociation in buffer was monitored for 600 seconds. Kinetic association and dissociation rate constants were determined by processing and fitting the data using Scrubber software version 2.0c. Binding equilibrium dissociation constants (KD) and dissociative half-lives (t_{1/2}) were then calculated from the kinetic rate constants as: KD (M)=kd/kₐ and t_{1/2} (min)=[ln 2/(60*kd)]. (NB=no binding observed under the conditions used; NT=not tested).

Activin A [3] = biological target: T1, Activin A; experiment: SPR, captured mAb, 37C
Description: as §2

Activin A [4] = biological target: T1, Activin A; experiment: Octet cross-competition; binder on anti-hFc tip; 50 nM hActivin A pre-bound with 1 uM H4H10468P2 (col 2); white box
Description: as §1

Activin A [5] = biological target: T1, Activin A; experiment: Octet cross-competition; binder on anti-hFc tip; 50 nM hActivin A pre-bound with 1 uM H4H10442P2 (col 3); white box
Description: as §1

Activin A [6] = biological target: T1, Activin A; experiment: Octet cross-competition; binder on anti-hFc tip; 50 nM hActivin A pre-bound with 1 uM H4H10446P2 (col 1); white box
Description: as §1

Activin A [7] = biological target: T1, Activin A; experiment: Octet cross-competition; binder on anti-hFc tip; 50 nM hActivin A pre-bound with 1 uM H4H10423P (col 4); white box
Description: as §1

Activin A [8] = biological target: T1, Activin A; experiment: SPR, captured mAb, 37C; no dissociation observed, kd fixed
Description: as §2

Activin A [9] = biological target: T1, Activin A; experiment: Octet cross-competition; binder on anti-hFc tip; 50 nM hActivin A pre-bound with 1 uM Control 1 (col 10); black box
Description: as §1

Activin A [10] = biological target: T1, Activin A; experiment: Octet cross-competition; binder on anti-hFc tip; 50 nM hActivin A pre-bound with 1 uM H4H10432P2 (col 7); black box
Description: as §1

Activin A [11] = biological target: T1, Activin A; experiment: Octet cross-competition; binder on anti-hFc tip; 50 nM hActivin A pre-bound with 1 uM H4H10436P2 (col 8); black box
Description: as §1

Activin A [12] = biological target: T1, Activin A; experiment: Octet cross-competition; binder on anti-hFc tip; 50 nM hActivin A mixed with 1 uM Isotype control 13 (-) (col 13); dark grey box
Description: as §1

Activin A [13] = biological target: T1, Activin A; experiment: Octet cross-competition; binder on anti-hFc tip; 50 nM hActivin A mixed with 1 uM Isotype control 12 (-) (col 12); dark grey box
Description: as §1

Activin A [14] = biological target: T1, Activin A; experiment: Octet cross-competition; binder on anti-hFc tip; 50 nM hActivin A pre-bound with 1 uM H4H10430P (col 5); black box
Description: as §1

Activin A [15] = biological target: T1, Activin A; experiment: Octet cross-competition; binder on anti-hFc tip; 50 nM hActivin A pre-bound with 1 uM Control 3 (col 11); black box
Description: as §1

Activin B [16] = biological target: T2, Activin B; experiment: SPR, captured mAb, 25C
Description: as §2

Activin A [17] = biological target: T1, Activin A; experiment: SPR, captured mAb, 25C
Description: as §2

Activin A [18] = biological target: T1, Activin A; experiment: Octet cross-competition; binder on anti-hFc tip; 50 nM hActivin A pre-bound with 1 uM H4H10429P (col 6); black box
Description: as §1

Row | Binder | 50 nM Ag Bound (RU) (Activin B [2]) | Kd (Activin B [2]) [nM] | koff (Activin B [2]) [s⁻¹] | kon (Activin B [2]) [M⁻¹ s⁻¹] | t1/2 (Activin B [2]) [min] | Activin A-20 nM (RU) (Activin A [3]) | Kd (Activin A [3]) [nM] | kon (Activin A [3]) [M⁻¹ s⁻¹] | t1/2 (Activin A [3]) [min] | binding response (Activin A [4]) | binding response (Activin A [5]) | binding response (Activin A [6]) | binding response (Activin A [7]) | binding response (Activin A [9]) | binding response (Activin A [10]) | binding response (Activin A [11]) | binding response (Activin A [12]) | binding response (Activin A [13]) | binding response (Activin A [14]) | binding response (Activin A [15]) | also measured
1 | H4H10429P (antibody, human IgG4, V domains shown) VH: QVQLVESGGGVVQPGRSLRLSCVASGFTVSSYGIHWVRQAPGKGLEWVSVIWYDGRNKDYADSVKGRFTISRDNSKNTVYLEMKGLRAEDTALYYCARDKTGDFDSWGQGTLVTVSS VL: DIQMTQSPSSLSASVGDRVTITCRASQNINSFLSWYQQKPGKAPKFLIYDASSIQSGAPSRFSGSGSGTDFTLTISSLQPEDFATYYCQQSYSSPFTFGQGTKLEIK | 25.3 | 9.98 | 0.0343 | 3.43e+06 | 0.3 | 31.4 | ≤ 0.00375 | 1.33e+07 | ≥ 231 | 1.37 | 1.4 | 1.24 | 1.39 | 0.16 | 0.26 | 0.34 | 0.24 | 0.39 | 0.65 | -0.01 | binding response (Activin A [1]): 0.29; koff (Activin A [8]): ≤ 5e-05 s⁻¹; 50 nM Ag Bound (RU) (Activin B [16]): 26.4 RU; Kd (Activin B [16]): 3.75 nM; koff (Activin B [16]): 0.0131 s⁻¹; kon (Activin B [16]): 3.49e+06 M⁻¹ s⁻¹; t1/2 (Activin B [16]): 0.9 min; Activin A-20 nM (RU) (Activin A [17]): 24.9 RU; Kd (Activin A [17]): 0.00817 nM; koff (Activin A [17]): 6.39e-05 s⁻¹; kon (Activin A [17]): 7.82e+06 M⁻¹ s⁻¹; t1/2 (Activin A [17]): 181 min
2 | H4H10440P2 (antibody, human IgG4, V domains shown) VH: EVQLVESGGGVVQPGGSLRLSCAASTFTFDDFAMHWVRQAPGKGLEWVSLITGDGGSTYYADPVKGRFTISRDNSKNSLYLQMNSLRTEDTALYYCVKDWWIAARPDYYYYGMDVWGQGTTVTVSS VL: not shown | 20.9 | 3.29 | 0.00419 | 1.28e+06 | 2.8 | 15.3 | 0.0515 | 6.37e+06 | 35.2 | 1.37 | 1.4 | 1.17 | 1.22 | 0.13 | 0.27 | 0.32 | 0.11 | 0.28 | 0.29 | -0.05 | koff (Activin A [3]): 0.000328 s⁻¹; binding response (Activin A [18]): 0.41; 50 nM Ag Bound (RU) (Activin B [16]): 18.8 RU; Kd (Activin B [16]): 1.09 nM; koff (Activin B [16]): 0.00116 s⁻¹; kon (Activin B [16]): 1.06e+06 M⁻¹ s⁻¹; t1/2 (Activin B [16]): 10 min; Activin A-20 nM (RU) (Activin A [17]): 12.9 RU; Kd (Activin A [17]): 0.0247 nM; koff (Activin A [17]): 9.28e-05 s⁻¹; kon (Activin A [17]): 3.76e+06 M⁻¹ s⁻¹; t1/2 (Activin A [17]): 124 min
